Test results reported in article PMC4005458, “Brassinosteroids control root epidermal cell fate via direct regulation of a MYB-bHLH-WD40 complex by GSK3-like kinases” (eLife, 2014).

T1: GST-fused EGL3 (Arabidopsis, UniProt Q9CAD0 1-596)
T1 construct: also called EGL3-GST; source: E. coli BL21 (DE3) pLySs, purified (glutathione resin)
T1 sequence (looked up): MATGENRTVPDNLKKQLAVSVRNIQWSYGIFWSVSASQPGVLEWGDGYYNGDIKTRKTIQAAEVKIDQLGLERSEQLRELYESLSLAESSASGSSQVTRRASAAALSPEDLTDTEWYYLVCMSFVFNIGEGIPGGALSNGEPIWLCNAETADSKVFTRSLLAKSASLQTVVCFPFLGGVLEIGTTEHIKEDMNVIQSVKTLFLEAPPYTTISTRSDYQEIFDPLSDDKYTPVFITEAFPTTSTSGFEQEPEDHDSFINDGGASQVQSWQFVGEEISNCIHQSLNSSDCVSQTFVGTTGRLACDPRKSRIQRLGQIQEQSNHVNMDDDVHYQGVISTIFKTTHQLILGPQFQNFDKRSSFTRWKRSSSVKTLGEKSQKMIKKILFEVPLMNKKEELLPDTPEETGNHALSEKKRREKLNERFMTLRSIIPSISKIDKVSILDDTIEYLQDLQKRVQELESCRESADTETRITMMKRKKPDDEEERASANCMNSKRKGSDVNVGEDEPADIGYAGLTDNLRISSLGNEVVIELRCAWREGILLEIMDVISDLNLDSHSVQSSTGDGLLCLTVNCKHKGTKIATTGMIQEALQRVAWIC

B1: His-fused BIN2 (enzyme, Arabidopsis, UniProt Q39011 1-380, looked up)
chain: MADDKEMPAAVVDGHDQVTGHIISTTIGGKNGEPKQTISYMAERVVGTGSFGIVFQAKCLETGETVAIKKVLQDRRYKNRELQLMRVMDHPNVVCLKHCFFSTTSKDELFLNLVMEYVPESLYRVLKHYSSANQRMPLVYVKLYMYQIFRGLAYIHNVAGVCHRDLKPQNLLVDPLTHQVKICDFGSAKQLVKGEANISYICSRFYRAPELIFGATEYTTSIDIWSAGCVLAELLLGQPLFPGENAVDQLVEIIKVLGTPTREEIRCMNPHYTDFRFPQIKAHPWHKIFHKRMPPEAIDFASRLLQYSPSLRCTALEACAHPFFDELREPNARLPNGRPFPPLFNFKQEVAGSSPELVNKLIPDHIKRQLGLSFLNQSGT
notes: BIN2 (BRASSINOSTEROID … 2), GSK3-like kinase of Arabidopsis, cloned into the PET28a vector; Primers are in Supplementary file 1; also called BIN2-His; source: E. coli BL21 (DE3) pLySs, purified (Ni-NTA agarose)

Legend:
[1] = biological target: B1; test: pull-down; GST fusions bound to GST resin, BIN2-His added, 2 hr at 4°C; 10 mM phosphate buffer pH 7.4, 140 mM NaCl, 3 mM KCl, 0.1% Triton X-100; immunoblot with anti-His antibody; conditions: both partners purified
[2] = biological target: T1, GST-fused EGL3; test: as above; conditions: both partners purified

binding result [1] | binding result [2] | Binder
binds | – | WEREWOLF (WER) fused to GST (natural protein, Arabidopsis, UniProt Q9SEI0 1-203, looked up, WER (WEREWOLF), R2R3 MYB-domain transcription factor of Arabidopsis; The methods describe the cloning of only EGL3 into pGEX4T-1; the making of WER-GST is not described; also called WER-GST; source: recombinant, purified) MRKKVSSSGDEGNNEYKKGLWTVEEDKILMDYVKAHGKGHWNRIAKKTGLKRCGKSCRLRWMNYLSPNVKRGNFTEQEEDLIIRLHKLLGNRWSLIAKRVPGRTDNQVKNYWNTHLSKKLGIKDQKTKQSNGDIVYQINLPNPTETSEETKISNIVDNNNILGDEIQEDHQGSNYLSSLWVHEDEFELSTLTNMMDFIDGHCF
binds | – | TRANSPARENT TESTA GLABRA1 (TTG1) fused to GST (natural protein, Arabidopsis, UniProt Q9XGN1 1-341, looked up, TTG1 (TRANSPARENT TESTA GLABRA1), WD40 repeat protein of Arabidopsis; The methods describe the cloning of only EGL3 into pGEX4T-1; the making of TTG1-GST is not described; also called TTG1-GST; source: recombinant, purified) MDNSAPDSLSRSETAVTYDSPYPLYAMAFSSLRSSSGHRIAVGSFLEDYNNRIDILSFDSDSMTVKPLPNLSFEHPYPPTKLMFSPPSLRRPSSGDLLASSGDFLRLWEINEDSSTVEPISVLNNSKTSEFCAPLTSFDWNDVEPKRLGTCSIDTTCTIWDIEKSVVETQLIAHDKEVHDIAWGEARVFASVSADGSVRIFDLRDKEHSTIIYESPQPDTPLLRLAWNKQDLRYMATILMDSNKVVILDIRSPTMPVAELERHQASVNAIAWAPQSCKHICSGGDDTQALIWELPTVAGPNGIDPMSVYSAGSEINQLQWSSSQPDWIGIAFANKMQLLRV
– | binds | B1
